# Patent US6410226
# B1: hsREC2 (human REC2, ATP-dependent homologous pairing protein) (protein)
# chain: MGSKKLKRVGLSQELCDRLSRHQILTCQDFLCLSPLELMKVTGLSYRGVHELLCMVSRACAPKMQTAYGIKAQRSADFSPAFLSTTLSALDEALHGGVACGSLTEITGPPGCGKTQFCIMMSILATLPTNMGGLEGAVVYIDTESAFSAERLVEIAESRFPRYFNTEEKLLLTSSKVHLYRELTCDEVLQRIESLEEEIISKGIKLVILDSVASVVRKEFDAQLQGNLKERNKFLAREASSLKYLAEEFSIPVILTNQITTHLSGALASQADLVSPADDLSLSEGTSGSSCVIAALGNTWSHSVNTRLILQYLDSERRQILIAKSPLAPFTSFVYTIKEEGLVLQAYGNS
protein,measurement,value
B1,Hill coefficient of ATP hydrolysis (ATPase activity) at ATP concentrations of <100 µM,the Hill coefficient (1.8)
